Literature values as cited in PMC12667676.

Biological target: MCHR1 (Homo sapiens) (UniProt Q99705)
Sequence of UniProt Q99705 (Q99705 whole entry): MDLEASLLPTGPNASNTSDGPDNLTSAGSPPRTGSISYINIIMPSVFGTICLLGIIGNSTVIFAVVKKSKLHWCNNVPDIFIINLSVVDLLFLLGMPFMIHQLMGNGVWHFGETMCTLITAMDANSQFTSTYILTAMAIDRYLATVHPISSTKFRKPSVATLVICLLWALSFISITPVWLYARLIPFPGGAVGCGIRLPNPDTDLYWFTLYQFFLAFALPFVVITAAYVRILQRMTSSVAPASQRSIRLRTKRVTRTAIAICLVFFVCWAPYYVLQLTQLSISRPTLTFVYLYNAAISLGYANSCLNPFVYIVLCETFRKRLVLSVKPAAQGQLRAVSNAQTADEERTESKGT

melanin-concentrating hormone (from UniProt P20382)
Kd: 3.1 nM
